Test results as given in patent publication US20210253692A1 (GALAPAGOS, published 2021).

Target: the molecule itself
Experiment: dynamic light scattering in phosphate buffered saline; self-interaction of the antibody

B1: MAB#1 (antibody, human IgG1, lambda, V domains shown)
VH: EVQLLESGGGLVQPGGSLRLSCAASGFTVSDYAMHWVRQAPGKGLEWVSYIGGVGEGTQYAESVKGRFTISRDNSKNTLYLQMNSLRAEDTAVYYCARGFAIRYYGFDYWGQGTLVTVSS
VL: SYELTQPPSVSVSPGQTASITCSGDKLGDKYAYWYQQKPGQSPVLVIYQDSKRPSGIPERFSGSNSGNTATLTISGTQAEDEADYYCQVFTFPLVTTVFGGGTKLTVLG
notes: also called IL-17C antibody; anti-IL-17C antibody
kD (diffusion interaction parameter): -23.6 mL/g
